From the supplement of paper PMC5998384

Assays:
HeLa Kyoto [1] = test: solubility in G1/S (NP-40 vs SDS abundance) (log2 ratio); higher = more soluble; settings: cell cycle stage: G1/S
HeLa Kyoto [2] = test: solubility change mitosis vs G1/S (difference of NP-40 vs SDS log2 ratios) (log2 ratio difference); higher = more soluble in mitosis
HeLa Kyoto [3] = test: melting temperature (median over replicates), in situ; higher = more thermally stable
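For melting temperature (median over replicates), in situ in this document: HeLa Kyoto cells synchronized by double thymidine or nocodazole block, proteins quantified by TMT10plex mass spectrometry, three independent biological replicates.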
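For solubility change mitosis vs G1/S (difference of NP-40 vs SDS log2 ratios) in this document: synchronized HeLa Kyoto cells (double thymidine block for G1/S, nocodazole release for mitosis), protein amounts in NP-40 versus SDS lysates quantified by mass spectrometry, three biological replicates.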
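For solubility in G1/S (NP-40 vs SDS abundance) in this document: HeLa Kyoto cells arrested at G1/S by double thymidine block, proteins quantified by TMT10plex mass spectrometry in mild NP-40 versus SDS extracts, three biological replicates.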

Sequence | solubility in G1/S (log2) (HeLa Kyoto [1]) | solubility change mitosis (log2) (HeLa Kyoto [2]) | melting temperature (HeLa Kyoto [3]; cell cycle stage: G1/S) [°C] | melting temperature (HeLa Kyoto [3]; cell cycle stage: mitosis) [°C]
MGPRARPALLLLMLLQTAVLQGRLLRSHSLHYLFMGASEQDLGLSLFEALGYVDDQLFVFYDHESRRVEPRTPWVSSRISSQMWLQLSQSLKGWDHMFTVDFWTIMENHNHSKESHTLQVILGCEMQEDNSTEGYWKYGYDGQDHLEFCPDTLDWRAAEPRAWPTKLEWERHKIRARQNRAYLERDCPAQLQQLLELGRGVLDQQVPPLVKVTHHVTSSVTTLRCRALNYYPQNITMKWLKDKQPMDAKEFEPKDVLPNGDGTYQGWITLAVPPGEEQRYTCQVEHPGLDQPLIVIWEPSPSGTLVIGVISGIAVFVVILFIGILFIILRKRQGSRGAMGHYVLAERE [HFE] | 0.207 | 0.0716 | 55.9 | 57.2
MGQQVGRVGEAPGLQQPQPRGIRGSSAARPSGRRRDPAGRTTETGFNIFTQHDHFASCVEDGFEGDKTGGSSPEALHRPYGCDVEPQALNEAIRWSSKENLLGATESDPNLFVALYDFVASGDNTLSITKGEKLRVLGYNQNGEWSEVRSKNGQGWVPSNYITPVNSLEKHSWYHGPVSRSAAEYLLSSLINGSFLVRESESSPGQLSISLRYEGRVYHYRINTTADGKVYVTAESRFSTLAELVHHHSTVADGLVTTLHYPAPKCNKPTVYGVSPIHDKWEMERTDITMKHKLGGGQYGEVYVGVWKKYSLTVAVKTLKEDTMEVEEFLKEAAVMKEIKHPNLVQLLGVCTLEPPFYIVTEYMPYGNLLDYLRECNREEVTAVVLLYMATQISSAMEYLEKKNFIHRDLAARNCLVGENHVVKVADFGLSRLMTGDTYTAHAGAKFPIKWTAPESLAYNTFSIKSDVWAFGVLLWEIATYGMSPYPGIDLSQVYDLLEKGYRMEQPEGCPPKVYELMRACWKWSPADRPSFAETHQAFETMFHDSSISEEVAEELGRAASSSSVVPYLPRLPILPSKTRTLKKQVENKENIEGAQDATENSASSLAPGFIRGAQASSGSPALPRKQRDKSPSSLLEDAKETCFTRDRKGGFFSSFMKKRNAPTPPKRSSSFREMENQPHKKYELTGNFSSVASLQHADGFSFTPAQQEANLVPPKCYGGSFAQRNLCNDDGGGGGGSGTAGGGWSGITGFFTPRLIKKTLGLRAGKPTASDDTSKPFPRSNSTSSMSSGLPEQDRMAMTLPRNCQRSKLQLERTVSTSSQPEENVDRANDMLPKKSEESAAPSRERPKAKLLPRGATALPLRTPSGDLAITEKDPPGVGVAGVAAAPKGKEKNGGARLGMAGVPEDGEQPGWPSPAKAAPVLPTTHNHKVPVLISPTLKHTPADVQLIGTDSQGNKFKLLSEHQVTSSGDKDRPRRVKPKCAPPPPPVMRLLQHPSICSDPTEEPTALTAGQSTSETQEGGKKAALGAVPISGKAGRPVMPPPQVPLPTSSISPAKMANGTAGTKVALRKTKQAAEKISADKISKEALLECADLLSSALTEPVPNSQLVDTGHQLLDYCSGYVDCIPQTRNKFAFREAVSKLELSLQELQVSSAAAGVPGTNPVLNNLLSCVQEISDVVQR [ABL2] | 0.0755 | -0.139 | 49.2 | 49.1
MGREFGNLTRMRHVISYSLSPFEQRAYPHVFTKGIPNVLRRIRESFFRVVPQFVVFYLIYTWGTEEFERSKRKNPAAYENDK [UQCRQ] | -0.497 | -0.186 | 53.1 | 51.8
MGSQALPPGPMQTLIFFDMEATGLPFSQPKVTELCLLAVHRCALESPPTSQGPPPTVPPPPRVVDKLSLCVAPGKACSPAASEITGLSTAVLAAHGRQCFDDNLANLLLAFLRRQPQPWCLVAHNGDRYDFPLLQAELAMLGLTSALDGAFCVDSITALKALERASSPSEHGPRKSYSLGSIYTRLYGQSPPDSHTAEGDVLALLSICQWRPQALLRWVDAHARPFGTIRPMYGVTASARTKPRPSAVTTTAHLATTRNTSPSLGESRGTKDLPPVKDPGALSREGLLAPLGLLAILTLAVATLYGLSLATPGE [TREX1] | -0.198 | 0.329 | 53.5 | 56.2
MGSTVPRSASVLLLLLLLRRAEQPCGAELTFELPDNAKQCFHEEVEQGVKFSLDYQVITGGHYDVDCYVEDPQGNTIYRETKKQYDSFTYRAEVKGVYQFCFSNEFSTFSHKTVYFDFQVGDEPPILPDMGNRVTALTQMESACVTIHEALKTVIDSQTHYRLREAQDRARAEDLNSRVSYWSVGETIALFVVSFSQVLLLKSFFTEKRPISRAVHS [TMED3] | -0.0742 | -0.000936 | 53.4 | 53.4
MHQPPESTAAAAAAADISARKMAHPAMFPRRGSGSGSASALNAAGTGVGSNATSSEDFPPPSLLQPPPPAASSTSGPQPPPPQSLNLLSQAQLQAQPLAPGGTQMKKKSGFQITSVTPAQISASISSNNSIAEDTESYDDLDESHTEDLSSSEILDVSLSRATDLGEPERSSSEETLNNFQEAETPGAVSPNQPHLPQPHLPHLPQQNVVINGNAHPHHLHHHHQIHHGHHLQHGHHHPSHVAVASASITGGPPSSPVSRKLSTTGSSDSITPVAPTSAVSSSGSPASVMTNMRAPSTTGGIGINSVTGTSTVNNVNITAVGSFNPNVTSSMLGNVNISTSNIPSAAGVSVGPGVTSGVNVNILSGMGNGTISSSAAVSSVPNAAAGMTGGSVSSQQQQPTVNTSRFRVVKLDSSSEPFKKGRWTCTEFYEKENAVPATEGVLINKVVETVKQNPIEVTSERESTSGSSVSSSVSTLSHYTESVGSGEMGAPTVVVQQQQQQQQQQQQQPALQGVTLQQMDFGSTGPQSIPAVSIPQSISQSQISQVQLQSQELSYQQKQGLQPVPLQATMSAATGIQPSPVNVVGVTSALGQQPSISSLAQPQLPYSQAAPPVQTPLPGAPPPQQLQYGQQQPMVSTQMAPGHVKSVTQNPASEYVQQQPILQTAMSSGQPSSAGVGAGTTVIPVAQPQGIQLPVQPTAVPAQPAGASVQPVGQAPAAVSAVPTGSQIANIGQQANIPTAVQQPSTQVPPSVIQQGAPPSSQVVPPAQTGIIHQGVQTSAPSLPQQLVIASQSSLLTVPPQPQGVEPVAQGIVSQQLPAVSSLPSASSISVTSQVSSTGPSGMPSAPTNLVPPQNIAQTPATQNGNLVQSVSQPPLIATNTNLPLAQQIPLSSTQFSAQSLAQAIGSQIEDARRAAEPSLVGLPQTISGDSGGMSAVSDGSSSSLAASASLFPLKVLPLTTPLVDGEDESSSGASVVAIDNKIEQAMDLVKSHLMYAVREEVEVLKEQIKELIEKNSQLEQENNLLKTLASPEQLAQFQAQLQTGSPPATTQPQGTTQPPAQPASQGSGPTA [TSC22D1] | -0.382 | -0.0765 | 54.4 | 53.1
MITKTHKVDLGLPEKKKKKKVVKEPETRYSVLNNDDYFADVSPLRATSPSKSVAHGQAPEMPLVKKKKKKKKGVSTLCEEHVEPETTLPARRTEKSPSLRKQVFGHLEFLSGEKKNKKSPLAMSHASGVKTSPDPRQGEEETRVGKKLKKHKKEKKGAQDPTAFSVQDPWFCEAREARDVGDTCSVGKKDEEQAALGQKRKRKSPREHNGKVKKKKKIHQEGDALPGHSKPSRSMESSPRKGSKKKPVKVEAPEYIPISDDPKASAKKKMKSKKKVEQPVIEEPALKRKKKKKRKESGVAGDPWKEETDTDLEVVLEKKGNMDEAHIDQVRRKALQEEIDRESGKTEASETRKWTGTQFGQWDTAGFENEDQKLKFLRLMGGFKNLSPSFSRPASTIARPNMALGKKAADSLQQNLQRDYDRAMSWKYSRGAGLGFSTAPNKIFYIDRNASKSVKLED [KNOP1] | -1.76 | 1.57 | 54.2 | 52.1
MLFKLLQRQTYTCLSHRYGLYVCFLGVVVTIVSAFQFGEVVLEWSRDQYHVLFDSYRDNIAGKSFQNRLCLPMPIDVVYTWVNGTDLELLKELQQVREQMEEEQKAMREILGKNTTEPTKKSEKQLECLLTHCIKVPMLVLDPALPANITLKDLPSLYPSFHSASDIFNVAKPKNPSTNVSVVVFDSTKDVEDAHSGLLKGNSRQTVWRGYLTTDKEVPGLVLMQDLAFLSGFPPTFKETNQLKTKLPENLSSKVKLLQLYSEASVALLKLNNPKDFQELNKQTKKNMTIDGKELTISPAYLLWDLSAISQSKQDEDISASRFEDNEELRYSLRSIERHAPWVRNIFIVTNGQIPSWLNLDNPRVTIVTHQDVFRNLSHLPTFSSPAIESHIHRIEGLSQKFIYLNDDVMFGKDVWPDDFYSHSKGQKVYLTWPVPNCAEGCPGSWIKDGYCDKACNNSACDWDGGDCSGNSGGSRYIAGGGGTGSIGVGQPWQFGGGINSVSYCNQGCANSWLADKFCDQACNVLSCGFDAGDCGQDHFHELYKVILLPNQTHYIIPKGECLPYFSFAEVAKRGVEGAYSDNPIIRHASIANKWKTIHLIMHSGMNATTIHFNLTFQNTNDEEFKMQITVEVDTREGPKLNSTAQKGYENLVSPITLLPEAEILFEDIPKEKRFPKFKRHDVNSTRRAQEEVKIPLVNISLLPKDAQLSLNTLDLQLEHGDITLKGYNLSKSALLRSFLMNSQHAKIKNQAIITDETNDSLVAPQEKQVHKSILPNSLGVSERLQRLTFPAVSVKVNGHDQGQNPPLDLETTARFRVETHTQKTIGGNVTKEKPPSLIVPLESQMTKEKKITGKEKENSRMEENAENHIGVTEVLLGRKLQHYTDSYLGFLPWEKKKYFQDLLDEEESLKTQLAYFTDSKNTGRQLKDTFADSLRYVNKILNSKFGFTSRKVPAHMPHMIDRIVMQELQDMFPEEFDKTSFHKVRHSEDMQFAFSYFYYLMSAVQPLNISQVFDEVDTDQSGVLSDREIRTLATRIHELPLSLQDLTGLEHMLINCSKMLPADITQLNNIPPTQESYYDPNLPPVTKSLVTNCKPVTDKIHKAYKDKNKYRFEIMGEEEIAFKMIRTNVSHVVGQLDDIRKNPRKFVCLNDNIDHNHKDAQTVKAVLRDFYESMFPIPSQFELPREYRNRFLHMHELQEWRAYRDKLKFWTHCVLATLIMFTIFSFFAEQLIALKRKIFPRRRIHKEASPNRIRV [GNPTAB] | 0.263 | -0.00222 | 53.9 | 54.1
MLGLCGQRLPAAWVLLLLPFLPLLLLAAPAPHRASYKPVIVVHGLFDSSYSFRHLLEYINETHPGTVVTVLDLFDGRESLRPLWEQVQGFREAVVPIMAKAPQGVHLICYSQGGLVCRALLSVMDDHNVDSFISLSSPQMGQYGDTDYLKWLFPTSMRSNLYRICYSPWGQEFSICNYWHDPHHDDLYLNASSFLALINGERDHPNATVWRKNFLRVGHLVLIGGPDDGVITPWQSSFFGFYDANETVLEMEEQLVYLRDSFGLKTLLARGAIVRCPMAGISHTAWHSNRTLYETCIEPWLS [PPT2] | 0.733 | -0.131 | 56.4 | 55.9
MMGCFALQTVDTELTADSVEWCPLQGCRHLLACGTYQLRRPEDRPAGPQNKGGMEVKEPQVRLGRLFLYSFNDNNSIHPLVEVQRKDTSAILDMKWCHIPVAGHALLGLADASGSIQLLRLVESEKSHVLEPLSSLALEEQCLALSLDWSTGKTGRAGDQPLKIISSDSTGQLHLLMVNETRPRLQKVASWQAHQFEAWIAAFNYWHPEIVYSGGDDGLLRGWDTRVPGKFLFTSKRHTMGVCSIQSSPHREHILATGSYDEHILLWDTRNMKQPLADTPVQGGVWRIKWHPFHHHLLLAACMHSGFKILNCQKAMEERQEATVLTSHTLPDSLVYGADWSWLLFRSLQRAPSWSFPSNLGTKTADLKGASELPTPCHECREDNDGEGHARPQSGMKPLTEGMRKNGTWLQATAATTRDCGVNPEEADSAFSLLATCSFYDHALHLWEWEGN [DPH7] | -0.0249 | -0.0679 | – | 57.1
MMWQKYAGSRRSMPLGARILFHGVFYAGGFAIVYYLIQKFHSRALYYKLAVEQLQSHPEAQEALGPPLNIHYLKLIDRENFVDIVDAKLKIPVSGSKSEGLLYVHSSRGGPFQRWHLDEVFLELKDGQQIPVFKLSGENGDEVKKE [COA1] | 0.0268 | 0.0489 | 54.7 | 55.7
MNRPAPVEISYENMRFLITHNPTNATLNKFTEELKKYGVTTLVRVCDATYDKAPVEKEGIHVLDWPFDDGAPPPNQIVDDWLNLLKTKFREEPGCCVAVHCVAGLGRAPVLVALALIECGMKYEDAVQFIRQKRRGAFNSKQLLYLEKYRPKMRLRFRDTNGHCCVQ [PTP4A2] | -0.226 | -0.087 | 53.7 | 54.1
